PMC10438466

B1: FOXA1: FOXA13A (protein)
parent chain: MLGTVKMEGHETSDWNSYYADTQEAYSSVPVSNMNSGLGSMNSMNTYMTMNTMTTSGNMTPASFNMSYANPGLGAGLSPGAVAGMPGGSAGAMNSMTAAGVTAMGTALSPSGMGAMGAQQAASMNGLGPYAAAMNPCMSPMAYAPSNLGRSRAGGGGDAKTFKRSYPHAKPPYSYISLITMAIQQAPSKMLTLSEIYQWIMDLFPYYRQNQQRWQNSIRHSLSFNDCFVKVARSPDKPGKGSYWTLHPDSGNMFENGCYLRRQKRFKCEKQPGAGGGGGSGSGGSGAKGGPESRKDPSGASNPSADSPLHRGVHGKTGQLEGAPAPGPAASPQTLDHSGATATGGASELKTPASSTAPPISSGPGALASVPASHPAHGLAPHESQLHLKGDPHYSFNHPFSINNLMSSSEQQHKLDFKAYEQALQYSPYGSTLPASLPLGSASVTTRSPIEPSALEPAYYQGVYSRPVLNTS
B2: FOXA1: TMG (protein)
parent chain: MLGTVKMEGHETSDWNSYYADTQEAYSSVPVSNMNSGLGSMNSMNTYMTMNTMTTSGNMTPASFNMSYANPGLGAGLSPGAVAGMPGGSAGAMNSMTAAGVTAMGTALSPSGMGAMGAQQAASMNGLGPYAAAMNPCMSPMAYAPSNLGRSRAGGGGDAKTFKRSYPHAKPPYSYISLITMAIQQAPSKMLTLSEIYQWIMDLFPYYRQNQQRWQNSIRHSLSFNDCFVKVARSPDKPGKGSYWTLHPDSGNMFENGCYLRRQKRFKCEKQPGAGGGGGSGSGGSGAKGGPESRKDPSGASNPSADSPLHRGVHGKTGQLEGAPAPGPAASPQTLDHSGATATGGASELKTPASSTAPPISSGPGALASVPASHPAHGLAPHESQLHLKGDPHYSFNHPFSINNLMSSSEQQHKLDFKAYEQALQYSPYGSTLPASLPLGSASVTTRSPIEPSALEPAYYQGVYSRPVLNTS
B3: FOXA1: OSMI-4 (protein)
parent chain: MLGTVKMEGHETSDWNSYYADTQEAYSSVPVSNMNSGLGSMNSMNTYMTMNTMTTSGNMTPASFNMSYANPGLGAGLSPGAVAGMPGGSAGAMNSMTAAGVTAMGTALSPSGMGAMGAQQAASMNGLGPYAAAMNPCMSPMAYAPSNLGRSRAGGGGDAKTFKRSYPHAKPPYSYISLITMAIQQAPSKMLTLSEIYQWIMDLFPYYRQNQQRWQNSIRHSLSFNDCFVKVARSPDKPGKGSYWTLHPDSGNMFENGCYLRRQKRFKCEKQPGAGGGGGSGSGGSGAKGGPESRKDPSGASNPSADSPLHRGVHGKTGQLEGAPAPGPAASPQTLDHSGATATGGASELKTPASSTAPPISSGPGALASVPASHPAHGLAPHESQLHLKGDPHYSFNHPFSINNLMSSSEQQHKLDFKAYEQALQYSPYGSTLPASLPLGSASVTTRSPIEPSALEPAYYQGVYSRPVLNTS

Key:
[1] = HA IP, anti-phospho-Ser/Thr WB; settings: glycan lost; control: FOXA1WT, untreated
[2] = cycloheximide chase, WB, MCF-7 FOXA1 KO; settings: glycan lost; control: FOXA1WT
[3] = HA IP, anti-ubiquitin WB; settings: control: untreated HA-FOXA1WT cells
[4] = WB of HA-FOXA1 protein level; settings: control: untreated HA-FOXA1WT cells

Protein	other: serine/threonine phosphorylation [1]	degradation_or_half_life [2]	other: ubiquitination ([3]; glycan gained)	expression_or_secretion ([4]; glycan gained)	other: ubiquitination ([3]; glycan lost)	expression_or_secretion ([4]; glycan lost)
B1	decreases	increases				
B2			increases	decreases		
B3	decreases				decreases	increases
